Values of other authors in publication PMC2806950.

Target: EcoKI R/M enzyme (Escherichia coli) (UniProt P08956)
Test: given as Ka

Sequence of EcoKI R/M enzyme (Escherichia coli) (P08956 whole entry, chain 1 of 3): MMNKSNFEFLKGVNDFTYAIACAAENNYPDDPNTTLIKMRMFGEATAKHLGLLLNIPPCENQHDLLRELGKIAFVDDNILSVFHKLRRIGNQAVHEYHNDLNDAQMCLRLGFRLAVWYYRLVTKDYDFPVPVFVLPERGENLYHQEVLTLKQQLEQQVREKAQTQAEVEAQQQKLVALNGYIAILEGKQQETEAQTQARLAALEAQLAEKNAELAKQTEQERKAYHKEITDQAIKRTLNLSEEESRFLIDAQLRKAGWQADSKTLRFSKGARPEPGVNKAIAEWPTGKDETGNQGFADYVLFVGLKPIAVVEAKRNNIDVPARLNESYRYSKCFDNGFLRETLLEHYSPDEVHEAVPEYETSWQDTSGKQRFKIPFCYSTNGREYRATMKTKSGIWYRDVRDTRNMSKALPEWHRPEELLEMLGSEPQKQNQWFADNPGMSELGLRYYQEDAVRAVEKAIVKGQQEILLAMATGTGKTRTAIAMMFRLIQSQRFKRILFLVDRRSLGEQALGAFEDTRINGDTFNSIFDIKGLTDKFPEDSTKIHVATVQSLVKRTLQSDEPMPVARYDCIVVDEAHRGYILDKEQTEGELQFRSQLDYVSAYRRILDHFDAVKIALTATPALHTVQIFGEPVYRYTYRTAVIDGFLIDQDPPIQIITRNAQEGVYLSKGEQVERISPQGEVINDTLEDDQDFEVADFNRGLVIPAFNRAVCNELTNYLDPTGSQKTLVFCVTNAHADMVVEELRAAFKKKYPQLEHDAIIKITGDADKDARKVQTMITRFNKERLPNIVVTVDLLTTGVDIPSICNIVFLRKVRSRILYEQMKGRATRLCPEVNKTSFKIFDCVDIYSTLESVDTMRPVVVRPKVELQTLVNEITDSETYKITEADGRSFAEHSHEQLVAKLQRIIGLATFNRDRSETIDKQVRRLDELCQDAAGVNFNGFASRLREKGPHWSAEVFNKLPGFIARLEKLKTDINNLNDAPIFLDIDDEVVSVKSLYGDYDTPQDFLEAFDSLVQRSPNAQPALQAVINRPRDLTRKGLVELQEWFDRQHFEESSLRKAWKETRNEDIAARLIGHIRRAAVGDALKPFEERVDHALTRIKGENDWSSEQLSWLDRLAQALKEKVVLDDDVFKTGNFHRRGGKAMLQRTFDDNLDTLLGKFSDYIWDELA
Sequence of EcoKI R/M enzyme (Escherichia coli) (P08957 whole entry, chain 2 of 3, further chain): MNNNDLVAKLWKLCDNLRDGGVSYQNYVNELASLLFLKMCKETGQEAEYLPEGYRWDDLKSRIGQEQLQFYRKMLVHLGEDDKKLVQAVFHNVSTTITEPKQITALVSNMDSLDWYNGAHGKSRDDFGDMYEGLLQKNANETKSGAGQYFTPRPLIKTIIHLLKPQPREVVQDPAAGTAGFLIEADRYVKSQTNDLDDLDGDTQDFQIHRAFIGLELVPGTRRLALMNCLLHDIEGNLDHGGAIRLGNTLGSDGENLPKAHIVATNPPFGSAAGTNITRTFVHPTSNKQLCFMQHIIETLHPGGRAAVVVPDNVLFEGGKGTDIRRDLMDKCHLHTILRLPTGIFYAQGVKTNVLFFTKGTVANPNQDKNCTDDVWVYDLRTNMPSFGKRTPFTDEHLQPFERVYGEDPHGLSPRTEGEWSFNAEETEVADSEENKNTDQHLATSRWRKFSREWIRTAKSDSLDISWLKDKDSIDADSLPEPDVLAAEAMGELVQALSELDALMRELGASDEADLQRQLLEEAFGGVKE
Sequence of EcoKI R/M enzyme (Escherichia coli) (P05719 2-464, chain 3 of 3, further chain): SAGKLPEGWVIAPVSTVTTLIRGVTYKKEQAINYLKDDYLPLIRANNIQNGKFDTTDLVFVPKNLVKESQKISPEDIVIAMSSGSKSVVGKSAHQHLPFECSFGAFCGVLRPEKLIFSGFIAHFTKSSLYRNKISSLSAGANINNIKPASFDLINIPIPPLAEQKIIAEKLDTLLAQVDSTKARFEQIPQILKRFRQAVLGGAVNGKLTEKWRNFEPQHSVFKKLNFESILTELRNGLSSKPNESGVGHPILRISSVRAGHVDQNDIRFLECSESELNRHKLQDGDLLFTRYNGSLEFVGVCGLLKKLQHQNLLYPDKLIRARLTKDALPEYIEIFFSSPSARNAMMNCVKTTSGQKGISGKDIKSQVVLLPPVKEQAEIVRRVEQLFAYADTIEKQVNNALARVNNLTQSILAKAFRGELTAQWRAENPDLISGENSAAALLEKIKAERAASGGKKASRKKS
Sequence of Ocr (P03775 whole entry): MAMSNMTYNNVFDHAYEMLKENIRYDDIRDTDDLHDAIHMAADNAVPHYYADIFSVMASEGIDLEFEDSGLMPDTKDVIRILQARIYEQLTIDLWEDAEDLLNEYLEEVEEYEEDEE

In the case of Ocr (from UniProt P03775), the Kd is given as 0.05 nM.
